Among the data in paper PMC2174084 are stoichiometry N (Kelch per actin (molar ratio)) values, retold here.

The target in the assay is rabbit skeletal muscle actin, polymerized (F-actin) (rabbit) (UniProt P68135). The experiment in a line: co-sedimentation.

Regarding “full-length Kelch (purified, recombinant; ORF1 cDNA) (natural protein)”, the stoichiometry N (Kelch per actin (molar ratio)) worked out at 0.25.
